Results as given in patent publication US20120316071A1 (published 2012).

Tests used:
[1] = target: T1, rHuman ErbB2/Fc Chimera, CF (R&D Systems Cat#1129-ER) (human, UniProt P04626 23-652); assay: Multispot ECL (MSD), antigen spotted on plate, Fab 15 nM; blank spot 536
T1 construct: Bought recombinant protein; also called human epidermal growth factor 2 receptor; Fc part of the bought chimera not given

[2] = target: T2, Recombinant Human DLL4 (R&D Systems Cat#1506-D4/CF) (human, UniProt Q9NR61 27-524); assay: as above
T2 construct: it includes the signal peptide (amino acids 1-25), the transmembrane region and the cytoplasmic domain; also called delta-like protein 4; rHuman DLL4

[3] = target: T3, rHuman IGF-1 sR, (IGF-1 sR), CF (R&D Systems Cat#391-GR) (human, UniProt P08069 31-932); assay: as above
T3 construct: Bought soluble receptor; also called insulin-like growth factor-1 soluble receptor

[4] = target: T4, rHuman CD44/Fc Chimera, CF (R&D Systems Cat#3660-CD) (human, UniProt P16070 21-220); assay: as above
T4 construct: Bought recombinant protein; Fc part of the bought chimera not given

[5] = target: T1, rHuman ErbB2/Fc Chimera, CF (R&D …); assay: Multispot ECL (MSD), antigen spotted on plate, Fab 0.9375 nM; blank spot 153
[6] = target: T2, Recombinant Human DLL4 (R&D Systems …); assay: as above
[7] = target: T3, rHuman IGF-1 sR, (IGF-1 sR), CF (R&D …); assay: as above
[8] = target: T4, rHuman CD44/Fc Chimera, CF (R&D Systems …); assay: as above
[9] = target: T1, rHuman ErbB2/Fc Chimera, CF (R&D …); assay: Multispot ECL (MSD), antigen spotted on plate, Fab 60 nM; blank spot 1433
[10] = target: T2, Recombinant Human DLL4 (R&D Systems …); assay: as above
[11] = target: T3, rHuman IGF-1 sR, (IGF-1 sR), CF (R&D …); assay: as above
[12] = target: T4, rHuman CD44/Fc Chimera, CF (R&D Systems …); assay: as above
[13] = target: T1, rHuman ErbB2/Fc Chimera, CF (R&D …); assay: Multispot ECL (MSD), antigen spotted on plate, Fab 3.75 nM; blank spot 191
[14] = target: T2, Recombinant Human DLL4 (R&D Systems …); assay: as above
[15] = target: T3, rHuman IGF-1 sR, (IGF-1 sR), CF (R&D …); assay: as above
[16] = target: T4, rHuman CD44/Fc Chimera, CF (R&D Systems …); assay: as above
[17] = target: T5, rHuman Erythropoietin R/Fc Chimera, CF (R&D Systems Cat#963-ER) (human, UniProt P19235 25-250); assay: MSD Multispot ECL, antigen spotted on plate, Fab 57.5 nM; blank spot 954
T5 construct: Bought reagent; also called EPO R/Fc; EPO R; Fc part of the bought chimera not given
T5 sequence (looked up): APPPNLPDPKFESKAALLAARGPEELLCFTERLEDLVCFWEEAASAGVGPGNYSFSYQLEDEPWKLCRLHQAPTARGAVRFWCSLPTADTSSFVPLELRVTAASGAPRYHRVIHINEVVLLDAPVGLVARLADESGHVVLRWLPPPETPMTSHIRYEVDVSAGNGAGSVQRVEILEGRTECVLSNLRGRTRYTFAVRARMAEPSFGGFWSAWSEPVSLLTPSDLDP

[18] = target: T6, Recombinant Human DLL4 (R&D Systems Cat#1506-D4/CF) (human, UniProt Q9NR61 27-529); assay: as above
T6 construct: Bought recombinant protein; also called rHuman DLL4; delta-like protein 4

[19] = target: T7, rHuman Notch-1/Fc Chimera, CF (R&D Systems Cat#3647-TK) (human, UniProt P46531 19-526); assay: as above
T7 construct: Bought reagent; Fc part of the bought chimera not given

[20] = target: T8, rHuman IGF-1 sR, (IGF-1 sR), CF (R&D Systems Cat#391-GR) (human, UniProt P08069 31-932); assay: as above
T8 construct: Bought soluble receptor; also called insulin-like growth factor-1 soluble receptor

[21] = target: T5, rHuman Erythropoietin R/Fc Chimera, CF …; assay: MSD Multispot ECL, antigen spotted on plate, Fab 14.375 nM; blank spot 738
[22] = target: T6, Recombinant Human DLL4 (R&D Systems …); assay: as above
[23] = target: T7, rHuman Notch-1/Fc Chimera, CF (R&D …); assay: as above
[24] = target: T8, rHuman IGF-1 sR, (IGF-1 sR), CF (R&D …); assay: as above
[25] = target: T5, rHuman Erythropoietin R/Fc Chimera, CF …; assay: MSD Multispot ECL, antigen spotted on plate, Fab 920 nM; blank spot 4082
[26] = target: T6, Recombinant Human DLL4 (R&D Systems …); assay: as above
[27] = target: T7, rHuman Notch-1/Fc Chimera, CF (R&D …); assay: as above
[28] = target: T8, rHuman IGF-1 sR, (IGF-1 sR), CF (R&D …); assay: as above
[29] = target: T5, rHuman Erythropoietin R/Fc Chimera, CF …; assay: MSD Multispot ECL, antigen spotted on plate, Fab 230 nM; blank spot 1656
[30] = target: T6, Recombinant Human DLL4 (R&D Systems …); assay: as above
[31] = target: T7, rHuman Notch-1/Fc Chimera, CF (R&D …); assay: as above
[32] = target: T8, rHuman IGF-1 sR, (IGF-1 sR), CF (R&D …); assay: as above

B1: Fab VH1-3_IGHD4-23*01_IGHJ4*01 & L12_IGKJ1*01 (Fab, V domains shown)
VH: QVQLVQSGAEVKKPGASVKVSCKASGYTFTSYAMHWVRQAPGQRLEWMGWSNAGNGNTKYSQEFQGRVTITRDTSASTAYMELSSLRSEDMAVYYCARDDYGGNSDYFDYWGQGTLVTVSS
VL: not shown
With B1 the ECL signal [1] was 740, the ECL signal [2] was 7730 and the ECL signal [3] was 859. The ECL signal [4] was 748, the ECL signal [5] was 268 and the ECL signal [6] was 453. For the same binder, the ECL signal [7] was 204, the ECL signal [8] was 251 and the ECL signal [9] was 2160. For the same binder, the ECL signal [10] was 17300, the ECL signal [11] was 2670 and the ECL signal [12] was 2360. The ECL signal [13] was 291, the ECL signal [14] was 1570 and the ECL signal [15] was 314. For the same binder, the ECL signal [16] was 307.

B2: Fab VH1-46_IGHD3-10*01_IGHJ4*01 & L12_IGKJ1*01 (Fab, V domains shown)
VH: QVQLVQSGAEVKKPGASVKVSCKASGYTFTSYYMHWVRQAPGQGLEWMGIINPSGGSTSYAQKFQGRVTMTRDTSTSTVYMELSSLRSEDTAVYYCAREYYYGSGSYYNDYFDYWGQGTLVTVSS
VL: not shown
notes: Tested as a Fab made in E. coli; VH was cloned into Plasmid A (CH1 with His6 and Flag tags) and the kappa VL into Plasmid C (kappa CL)
B2 showed an ECL signal [17] of 4040, an ECL signal [18] of 144000 and an ECL signal [19] of 5890. It also gave an ECL signal [20] of 2830, an ECL signal [21] of 2720 and an ECL signal [22] of 125000. For the same binder, the ECL signal [23] was 4210, the ECL signal [24] was 1750 and the ECL signal [25] was 16400. For the same binder, the ECL signal [26] was 73600, the ECL signal [27] was 20100 and the ECL signal [28] was 10200. For the same binder, the ECL signal [29] was 6950, the ECL signal [30] was 119000 and the ECL signal [31] was 9740. The ECL signal [32] was 4760.
